The results in this text go back to article PMC12457681, “Hyperactive PLCG1 induces cell-autonomous and bystander T cell activation and drug resistance” (EMBO Reports, 2025).

The test concerns the target His6-ybbR-alpha-SMA, recombinant, assembled into filaments (human, UniProt P62736 1-377). In words: co-sedimentation; actin co-pelleting (spin-down) assay: 4 µM α-SMA pre-assembled into filaments (with Rhodamine muscle actin), 0.4 µM PLCG1 and 1 µM myosin in 50 mM HEPES pH 7.4, 150 mM NaCl, 1 mM TCEP, 2 h at room temperature; high-speed centrifugation; supernatant and pellet on SDS-PAGE. Particulars: both partners purified.

B1: Rat PLCG1 (aa 21-1215) WT, recombinant (enzyme, UniProt P10686 21-1215, looked up)
chain: EVLHLCRSLEVGTVMTLFYSKKSQRPERKTFQVKLETRQITWSRGADKIEGSIDIREIKEIRPGKTSRDFDRYQEDPAFRPDQSHCFVILYGMEFRLKTLSLQATSEDEVNMWIKGLTWLMEDTLQAATPLQIERWLRKQFYSVDRNREDRISAKDLKNMLSQVNYRVPNMRFLRERLTDFEQRSGDITYGQFAQLYRSLMYSAQKTMDLPFLETNTLRTGERPELCQVSLSEFQQFLLEYQGELWAVDRLQVQEFMLSFLRDPLREIEEPYFFLDELVTFLFSKENSVWNSQLDAVCPETMNNPLSHYWISSSHNTYLTGDQFSSESSLEAYARCLRMGCRCIELDCWDGPDGMPVIYHGHTLTTKIKFSDVLHTIKEHAFVASEYPVILSIEDHCSIAQQRNMAQHFRKVLGDTLLTKPVDIAADGLPSPNQLKRKILIKHKKLAEGSAYEEVPTSVMYSENDISNSIKNGILYLEDPVNHEWYPHYFVLTSSKIYYSEETSSDQGNEDEEEPKEASGSTELHSSEKWFHGKLGAGRDGRHIAERLLTEYCIETGAPDGSFLVRESETFVGDYTLSFWRNGKVQHCRIHSRQDAGTPKFFLTDNLVFDSLYDLITHYQQVPLRCNEFEMRLSEPVPQTNAHESKEWYHASLTRAQAEHMLMRVPRDGAFLVRKRNEPNSYAISFRAEGKIKHCRVQQEGQTVMLGNSEFDSLVDLISYYEKHPLYRKMKLRYPINEEALEKIGTAEPDYGALYEGRNPGFYVEANPMPTFKCAVKALFDYKAQREDELTFTKSAIIQNVEKQDGGWWRGDYGGKKQLWFPSNYVEEMINPAILEPEREHLDENSPLGDLLRGVLDVPACQIAIRPEGKNNRLFVFSISMPSVAQWSLDVAADSQEELQDWVKKIREVAQTADARLTEGKMMERRKKIALELSELVVYCRPVPFDEEKIGTERACYRDMSSFPETKAEKYVNKAKGKKFLQYNRLQLSRIYPKGQRLDSSNYDPLPMWICGSQLVALNFQTPDKPMQMNQALFMAGGHCGYVLQPSTMRDEAFDPFDKSSLRGLEPCVICIEVLGARHLPKNGRGIVCPFVEIEVAGAEYDSTKQKTEFVVDNGLNPVWPAKPFHFQISNPEFAFLRFVVYEEDMFSDQNFLAQATFPVKGLKTGYRAVPLKNNYSEDLELASLLIKIDIFPAK
notes: Phospholipase C gamma 1, rat, aa 21-1215; PDB 6PBC (cited) is the structure of PLCG1 from that work; also called wild-type PLCG1; PLCG1 WT; source: expressed and purified as previous published protocol (Hajicek et al, 2019)
On to B1, for which the binding result is given as “binds”.

B2: Rat PLCG1 (aa 21-1215) D1165H, recombinant (enzyme, UniProt P10686 21-1215, looked up)
chain: EVLHLCRSLEVGTVMTLFYSKKSQRPERKTFQVKLETRQITWSRGADKIEGSIDIREIKEIRPGKTSRDFDRYQEDPAFRPDQSHCFVILYGMEFRLKTLSLQATSEDEVNMWIKGLTWLMEDTLQAATPLQIERWLRKQFYSVDRNREDRISAKDLKNMLSQVNYRVPNMRFLRERLTDFEQRSGDITYGQFAQLYRSLMYSAQKTMDLPFLETNTLRTGERPELCQVSLSEFQQFLLEYQGELWAVDRLQVQEFMLSFLRDPLREIEEPYFFLDELVTFLFSKENSVWNSQLDAVCPETMNNPLSHYWISSSHNTYLTGDQFSSESSLEAYARCLRMGCRCIELDCWDGPDGMPVIYHGHTLTTKIKFSDVLHTIKEHAFVASEYPVILSIEDHCSIAQQRNMAQHFRKVLGDTLLTKPVDIAADGLPSPNQLKRKILIKHKKLAEGSAYEEVPTSVMYSENDISNSIKNGILYLEDPVNHEWYPHYFVLTSSKIYYSEETSSDQGNEDEEEPKEASGSTELHSSEKWFHGKLGAGRDGRHIAERLLTEYCIETGAPDGSFLVRESETFVGDYTLSFWRNGKVQHCRIHSRQDAGTPKFFLTDNLVFDSLYDLITHYQQVPLRCNEFEMRLSEPVPQTNAHESKEWYHASLTRAQAEHMLMRVPRDGAFLVRKRNEPNSYAISFRAEGKIKHCRVQQEGQTVMLGNSEFDSLVDLISYYEKHPLYRKMKLRYPINEEALEKIGTAEPDYGALYEGRNPGFYVEANPMPTFKCAVKALFDYKAQREDELTFTKSAIIQNVEKQDGGWWRGDYGGKKQLWFPSNYVEEMINPAILEPEREHLDENSPLGDLLRGVLDVPACQIAIRPEGKNNRLFVFSISMPSVAQWSLDVAADSQEELQDWVKKIREVAQTADARLTEGKMMERRKKIALELSELVVYCRPVPFDEEKIGTERACYRDMSSFPETKAEKYVNKAKGKKFLQYNRLQLSRIYPKGQRLDSSNYDPLPMWICGSQLVALNFQTPDKPMQMNQALFMAGGHCGYVLQPSTMRDEAFDPFDKSSLRGLEPCVICIEVLGARHLPKNGRGIVCPFVEIEVAGAEYDSTKQKTEFVVDNGLNPVWPAKPFHFQISNPEFAFLRFVVYEEHMFSDQNFLAQATFPVKGLKTGYRAVPLKNNYSEDLELASLLIKIDIFPAK
notes: Phospholipase C gamma 1, rat, aa 21-1215, with the human leukemia/lymphoma-associated mutation D1165H; also called recombinant PLCG1 D1165H protein; source: expressed and purified as previous published protocol (Hajicek et al, 2019)
Take B2: the binding result is recorded as “binds”.
